{"source": "paper PMC5912465", "about": "(2018)", "binders": {"B1": {"name": "CCL3 (ligand)", "chain": "SLAADTPTACCFSYTSRQIPQNFIADYFETSSQCSKPGVIFLTKRSRQVCADPSEEWVQKYVSDLELSA"}, "B2": {"name": "CCL18 (ligand)", "chain": "AQVGTNKELCCLVYTSWQIPQKFIVDYSETSPQCPKPGVILLTKRGRQICADPNKKWVQKYISDLKLNA"}, "B3": {"name": "CCL8 (human chemokine panel) (ligand)", "chain": "QPDSVSIPITCCFNVINRKIPIQRLESYTRITNIQCPKEAVIFKTKRGKEVCADPKERWVRDSMKHLDQIFQNLKP"}, "B4": {"name": "CCL14 (ligand)", "chain": "TKTESSSRGPYHPSECCFTYTTYKIPRQRIMDYYETNSQCSKPGIVFITKRGHSVCTNPSDKWVQDYIKDMKEN"}, "B5": {"name": "CCL3L1 (ligand)", "chain": "APLAADTPTACCFSYTSRQIPQNFIADYFETSSQCSKPSVIFLTKRGRQVCADPSEEWVQKYVSDLELSA"}}, "key": {"[1]": {"target": "B3", "test": "BLI"}, "[2]": {"target": "B5", "test": "BLI"}, "[3]": {"target": "B2", "test": "BLI"}, "[4]": {"target": "B1", "test": "BLI"}, "[5]": {"target": "T1, CCL23 (human, UniProt P55773 22-120)", "T1 chain": "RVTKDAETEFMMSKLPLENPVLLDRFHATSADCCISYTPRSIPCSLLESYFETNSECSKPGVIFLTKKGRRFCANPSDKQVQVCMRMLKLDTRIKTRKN", "test": "BLI"}, "[6]": {"target": "evasin 1 (EVA1_RHISA), C-terminally tagged (Rhipicephalus sanguineus, UniProt P0C8E7 21-114, K92N)", "test": "BLI"}, "[7]": {"target": "other, more extended hybrid molecules (P672_EVA1 hybrids)", "test": "BLI; P672(1_92):EVA1(74_94)"}, "[8]": {"target": "other, more extended hybrid molecules (P672_EVA1 hybrids)", "test": "BLI; P672(1_66):EVA1(47_94)"}, "[9]": {"target": "P672(1_44)-EVA1(29_94) hybrid evasin (Rhipicephalus pulchellus | …, UniProt L7MC74;P0C8E7, K92N)", "test": "BLI"}, "[10]": {"target": "CCL11 (human, UniProt P51671 24-97)", "sequence (P51671 24-97)": "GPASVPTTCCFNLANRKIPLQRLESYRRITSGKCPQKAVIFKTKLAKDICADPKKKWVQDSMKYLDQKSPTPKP", "test": "BLI"}, "[11]": {"target": "CCL2 (human, UniProt P13500 24-99)", "test": "BLI"}, "[12]": {"target": "T2, CCL16 (human, UniProt O15467 24-120)", "T2 chain": "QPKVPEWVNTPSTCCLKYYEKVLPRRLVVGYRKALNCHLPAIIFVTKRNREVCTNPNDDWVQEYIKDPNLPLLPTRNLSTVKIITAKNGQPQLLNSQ", "test": "BLI"}, "[13]": {"target": "T3, CCL15 (human, UniProt Q16663 22-113)", "T3 chain": "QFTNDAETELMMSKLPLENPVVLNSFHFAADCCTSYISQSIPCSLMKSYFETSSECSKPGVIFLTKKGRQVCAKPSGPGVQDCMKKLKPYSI", "test": "BLI"}, "[14]": {"target": "CCL13 (human, UniProt Q99616 17-98)", "sequence (Q99616 17-98)": "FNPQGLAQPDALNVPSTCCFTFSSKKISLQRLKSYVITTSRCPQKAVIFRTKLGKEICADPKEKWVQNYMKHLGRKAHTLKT", "test": "BLI"}, "[15]": {"target": "CCL7 (human, UniProt P80098 24-99)", "sequence (P80098 24-99)": "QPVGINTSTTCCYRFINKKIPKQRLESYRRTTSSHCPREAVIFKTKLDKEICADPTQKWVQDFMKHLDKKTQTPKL", "test": "BLI"}, "[16]": {"target": "T4, CCL1 (human, UniProt P22362 24-96)", "T4 chain": "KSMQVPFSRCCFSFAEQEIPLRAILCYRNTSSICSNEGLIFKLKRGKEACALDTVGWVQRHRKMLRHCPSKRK", "test": "BLI"}, "[17]": {"target": "B4", "test": "BLI"}}, "data": [{"binder": "C-terminally tagged P672 (P672_RHIPU), glycosylated (natural protein, glycosylated) ETGVCEVSEQEGVGEDNATEDEDYEDFFKPVTCYFANSTVGPLRPPNCTVVCTNNTAWWNDTKSDGGHCYSEYRPEKRTHSREIYNCTIGVCGNGTCIANHTYADCW", "values": [{"measurement": "Kd", "setting": "[1]", "value": 16.4, "unit": "nM"}, {"measurement": "Kd", "setting": "[2]", "value": 5.7, "unit": "nM"}, {"measurement": "Kd", "setting": "[3]", "value": 0.9, "unit": "nM"}, {"measurement": "Kd", "setting": "[4]", "value": 13, "unit": "nM"}, {"measurement": "Kd", "setting": "[5]", "value": 9.7, "unit": "nM"}]}, {"binder": "CCL4L1 (ligand) APMGSDPPTACCFSYTARKLPRNFVVDYYETSSLCSQPAVVFQTKRGKQVCADPSESWVQEYVYDLELN", "values": [{"measurement": "Kd", "setting": "[6]", "value": 77.9, "unit": "nM"}]}, {"binder": "CCL4 (ligand) APMGSDPPTACCFSYTARKLPRNFVVDYYETSSLCSQPAVVFQTKRSKQVCADPSESWVQEYVYDLELN", "values": [{"measurement": "Kd", "setting": "[6]", "value": 233, "unit": "nM"}]}, {"binder": "B1", "values": [{"measurement": "Kd", "setting": "[6]", "value": 7.3, "unit": "nM"}]}, {"binder": "B2", "values": [{"measurement": "Kd", "setting": "[7]", "value": 9.75, "unit": "nM"}, {"measurement": "Kd", "setting": "[8]", "value": 3.69, "unit": "nM"}, {"measurement": "Kd", "setting": "[6]", "value": 2.02, "unit": "nM"}, {"measurement": "Kd", "setting": "[9]", "value": 6.45, "unit": "nM"}]}, {"binder": "B3", "values": [{"measurement": "Kd", "setting": "[7]", "value": 397, "unit": "nM"}, {"measurement": "Kd", "setting": "[8]", "value": 277, "unit": "nM"}, {"measurement": "Kd", "setting": "[9]", "value": 216, "unit": "nM"}]}, {"binder": "N-terminally tagged P672 (P672_RHIPU), glycosylated (natural protein, N-glycosylated (six N-glycosylated residues identified by mass spectrometry, Asn-34 among them; marked in Figure 2A)) VCEVSEQEGVGEDNATEDEDYEDFFKPVTCYFANSTVGPLRPPNCTVVCTNNTAWWNDTKSDGGHCYSEYRPEKRTHSREIYNCTIGVCGNGTCIANHTYADCW", "values": [{"measurement": "Kd", "setting": "[10]", "value": 2.29, "unit": "nM"}, {"measurement": "Kd", "setting": "[1]", "value": 8.51, "unit": "nM"}, {"measurement": "Kd", "setting": "[2]", "value": 1.63, "unit": "nM"}, {"measurement": "Kd", "setting": "[11]", "value": 21, "unit": "nM"}, {"measurement": "Kd", "setting": "[3]", "value": 1.62, "unit": "nM"}, {"measurement": "Kd", "setting": "[12]", "value": 9.6, "unit": "nM"}, {"measurement": "Kd", "setting": "[4]", "value": 0.954, "unit": "nM"}, {"measurement": "Kd", "setting": "[13]", "value": 31.5, "unit": "nM"}, {"measurement": "Kd", "setting": "[14]", "value": 7.6, "unit": "nM"}, {"measurement": "Kd", "setting": "[15]", "value": 18.6, "unit": "nM"}, {"measurement": "Kd", "setting": "[16]", "value": 11, "unit": "nM"}, {"measurement": "Kd", "setting": "[17]", "value": 5.5, "unit": "nM"}, {"measurement": "Kd", "setting": "[5]", "value": 4.56, "unit": "nM"}]}, {"binder": "B4", "values": [{"measurement": "Kd", "setting": "[6]", "value": 108, "unit": "nM"}]}, {"binder": "B5", "values": [{"measurement": "Kd", "setting": "[6]", "value": 22.4, "unit": "nM"}]}]}
